{"source": "the DeepSol protein solubility set"}
{"assay": "soluble on expression in E. coli; label from the status in PepcDB or PDB records"}
{"sequence": "MSLIAVKPKKGHLLVAEPSITGDLSFNRSVVLLADHNCEGSVGFILNKPLGYTINDLIPEISARFKVYNGGPIEQDNLYFIHNIPQLIPNSIEIAEGIYWGGCFDSTRDLINQGKITQNNIRFFLGYSGWDAAQLQEELESNSWIISENNLHNKIIGKSSTDLWREKIKEQGGDYLIWSNAPENPILNEGHHHHHH", "soluble on expression in E. coli": "soluble"}
{"sequence": "MSLIDRTHELPLTQQCRILRLARSSMYYTPREVSAHDLALMRRMDELHLEHPFAGARMLRDLLRAEGHAIGRKHVGTLMRRMGIEALYRKPNTSRRRRGDEIYPYLLRDLKIERPNQAWAADITYIPMRKGFVYLFAIIDWSSRRVLAWRLSNTLTTDFCLDAVREALHRYGRPEIFNTDQGCQFTSTDFTDLLKDNGIQISMDGKGCWRDNVFVERLWKSVKYEEVYLKAYDSVAEAKAHLGAYLRFYNERRPHRAHDGRTPDQAYFGALRDETPLAAEGHHHHHH", "soluble on expression in E. coli": "not soluble"}
{"sequence": "MSLIEENLKQKIHDKFVAAKKNGHLKVTHAESKKLKDPQTTTQYWVTFAPSLALKPDANKNSDSKAEDPFANPDEELVVTEDLNGDGEYKLLLNKFPVVPEHSLLVTSEFKDQRSALTPSDLMTAYNVLCSLQGDKDDDVTCERYLVFYNCGPHSGSSQDHKHLQIMQMPEKFIPFQDVLCNGKDHFLPTFNAEPLQDDKVSFAHFVLPLPESSDQVDEDLLAMCYVSLMQRALTFFQDWTNESPELTKSYNVLLTKKWICVVPRSHAKSGPPLMLNINSTGYCGMILVKDREKLENLTEDPHLVDKSLLQCGFPNTAGQKPTEYHYEGHHHHHH", "soluble on expression in E. coli": "soluble"}
{"sequence": "MSLIEFNKKTNTLEQVQYKYTLQDVSEPNLYRDIFSYDEIPKCTFNHRKVPMAPPDEIWITDTTFRDGQQSRAPYTVEQIVHLYDLLHKLGGPKGIIRQCEFFLYSDRDKQAVYKCLERGYKYPEVTSWIRATKSDFQLAKDMGMKESGILVSCSDYHIFKKLNMTRKQALEHYMSIVKSAIEVGIRPRCHFEDITRADFYGFVVPFAIELRKLMEESGVPIKIRACDTLGYGVSYPGAALPRSVPGIIYGLRHYAGFPSELIEWHGHNDFYKAVCNAATAWLYGASAVNCSLLGIGERTGNTPLEAMVIEYAQLRGTTDSMDTTVITEIAEYYEKELGYQIPPRTPFVGKHFNVTQAGIHADGLLKDEEIYNIFDTAKLLNRPVGVAINQTSGLAGIAHWINSHFGLEGAKRIDKRDERIVKIKEWVDEQYKAGRVTSIGDDELEEVIRKLAPEIFDLALEGHHHHHH", "soluble on expression in E. coli": "soluble"}
{"sequence": "MSLIENLWRGICIISASEDAFSAGETIKEKLKSFEIPVVHYRYKDAEIETIWKCYDAIVFVMALEGATRIVCKYAKSKTEDPAIVCIDDKINYVIPLLGGHWGANDIARELSVILNSTPIITTAAEIKGKLSIERIANILIAKIINPENIVKINAALLRDESICIDGIDVNVNFPENIKVNSEECSYIISLRGDKEYKDKIVVWLKPLKISIGIGSKKDVKMEEIRDGIYKVLERLNLKRERIGIIASIREEVKKIADEFNVRFRLVNEEEINNFMNPCLTPPSKTLIEVGLKGVAEISALIAGGRNSKLILRKIAISRNSTIAVATYEGHHHHHH", "soluble on expression in E. coli": "soluble"}
{"sequence": "MSLIGKHFIITGATSGLGFAITNELLQRGAHVTILARNIDKFNRIKENYFKPEHINVIKCDLMQRKDIESLQKFLNTPINGFIYSSGVGYFKSISEHSTREVVETYEVNLTNFNLLYKVIQPQLVKAAYIVGISSQAALVSQANAAHYGASKAGFSAVLNALRLEQPELKVLNVQPGPIDTPFQKNADPTLKYFKNYRHMMIQPQQLAKQIVEGIILNKIEINQPSWMQEGHHHHHH", "soluble on expression in E. coli": "not soluble"}
{"sequence": "MSLIIRLNFITKYKVDMKRSHLSLIACLLASTQAYALSTDREQPVYIDSDSQQLDMKSNRVTFLGDVKLKQGSININADKLIVIRNAENGKIEEIEGYGNVATFSQLTDEGKTLYGEAKELYYKVRDDELVMINKAMLSQDDSEIRGSKIRYKISLQKLIADSDGKGRVSTVLQPQAIQEEGHHHHHH", "soluble on expression in E. coli": "soluble"}
{"sequence": "MSLIPVVLSGGAGTRLWPVSREGQPKPFMRLPDGQTLLGKTYRRAAGLLAGHGEIVTVTNREHYFQSKDQFHAARLGRHRGHFILEPTGRNTAPAIAVAALGLQAEHGDAAVLVVMPADHLIRNEEAFREAVGHAARLAVAGHLVTFGVVPDAAETGFGYIELGDRLDEQGAAKVRRFVEKPDEETRRRYVESGGFLWNSGMFCFTASTLVDELAQHAPALLEQARACLAASAAVKMADGIQHELAGEGFAALPDISIDYALMERSARVAVVPAAFDWSDIGSWGAMSALLDADAEGNRGSGDTLFVDTRNTFVQSDGRLVATVGVDDLVVVDTSDALLIARADRVQEVRRVVQRLKDEREGHHHHHH", "soluble on expression in E. coli": "soluble"}
{"sequence": "MSLIRSKYAFLQKLTRDLKMKSINIGEELEGATPPSVFIGSWNYPKVYAGPMIAPVQEEVEIFDSPERWIPERKTQEEIIDYRLNLVRGKQLVGVRDLDNHLVEKLQEISLSSGAIESEAQFRRKPRGLFFSEEQTPHGPSAVLENFEIENVKWDRELERAYHDTDLRAREAIVELHRKGTPFSAVQKALSVGALGEGKRRKLVPTRWSITACDSTLADHFLERVLEYEPIDTFRVHEFESLKNHYLILLTPSEWQYEWMEAFMKRDGRAMIFSDHETGKGKREYSRVGGCYYSAKMAVLDALDREEKQAGAIILREAYPGYVPLGVFNVRENVKNAMDTEPTMFNDLRGALEFIDSKLKLGLEAFRVRSNLLKELEVSRQTTLDSFFREGHHHHHH", "soluble on expression in E. coli": "not soluble"}
{"sequence": "MSLIRWCFTMKLAVIGGGDLQDSNHSPINERLIELTNKQYPKVLFIPTASHDDESYIKLFLDTFEKQLHCDVQILGIIADTPSKYEIDEMIQSADLIYLGGGNYIQMVTEWKEHKLDEKLLLALEQGTLIAGYSAGAMCWFTSSIRSDYEGSGYIESNGWGIVNKRFCPHYNQLNRMNAFHSFLQNHQGNIEGIALEDNCALYITEESFEIIGEPEKAWEFYMSDNKLIRQHFDITLKSYLEGHHHHHH", "soluble on expression in E. coli": "not soluble"}
{"sequence": "MSLITCSKCSRRAVIFQRHANRHLCKRHFIEDFERRVKLAVKKYDMIQKGDRIAIALSGGKDSVTLAFVLNKLYGFRSDLEFFAITIDEGIAGYRPPTVEIARKVTEQLGMEHLVVSFEENFGMTLDEMVKRGDKKPCTYCGVFRKYLLNRTAREMGATKLATGHNLDDETQTILLNFLNADMERMARLVPQRVQEGLVVRIKPFRYVYEKEVVVYGFLHELPMDFDECPYSHFPVRAAVRDFLYDFENKYPGRKFSVMSSFEKLIPCLKEIYPQIDLNRCERCGEPTPRRICQACKLLEELRGVDEGHHHHHH", "soluble on expression in E. coli": "not soluble"}
{"sequence": "MSLITIGITGGIGSGKSVVSRILLTLGIPVYDSDSRAKWLNDHSPVVRQALTGLIGSDLYENGILRRDRLAAAIFSSGDLLEQVNGIIHPEVKKDFCQWRSECESDLCAIESAILFSSGFNSLCDTVIRVDAPEKIRQERAMARDGSSAETMRQRMLSQEREQSLAKAGADHTVLNAPPHLLVPQVVRIIETVRTKRPNPPDEGHHHHHH", "soluble on expression in E. coli": "soluble"}
{"sequence": "MSLKAKIKELENNLERLRSDLQSKIQEIESIRSCKDSQLKWAQNTIDDTEMKMKSLLTELSNKETTIEKLSSEIENLDKELRKTKFQYKFLDQNSDASTLEPTLRKELEQIQVQLKDANSQIQAYEEIISSNENALIELKNELAKTKENYDAKIELEKKEKWAREEDLSRLRGELGEIRALQPKLKEGALHFVQQSEKLRNEVERIQKMIEKIEKMSTIVQLCKKKEMSQYQSTMKENKDLSELVIRLEKDAADCQAELTKTKSSLYSAQDLLDKHERKWMEEKADYERELISNIEQTESLREGHHHHHH", "soluble on expression in E. coli": "soluble"}
{"sequence": "MSLKAVIFDMDGVLIDSEPLHLDYAFKLFKELNITMTPNEYSKFIGTTSLYMWSNIKDTYNLENTVESLINKERNGFFEFLSSPNTNIKPIDHIPELLGALKENNFKTAVASSSPMRVIKYIINNFELAKQFNELVTGDYVERSKPNPDIFLYAAKKLDVSPEQCVVIEDSHNGVLAAKNAGMKCIGFKNPNSGNQDLSKADTIIHSFNEIDILNEGHHHHHH", "soluble on expression in E. coli": "soluble"}
{"sequence": "MSLKDMSYQAVMGRNNEIMKNAIGLDYSSFEQEGIGFDYEKMMSETGYTLQDIEAIQSQYAVGNTPLIELKNLTKLARKCAKEGKGARIFVKDEAMNASGSFKARRAATAVYHAKQMGYKGVIAATSGNYGAAVASQAAMQGLKCIIVQECYDSNGVGQPEIIEKARKCEAYGAEVVQLTVGPELFYTFLVLLEETGYFNASLYSPFGIAGVETLGYELAIQFREKYKKDPDIVVCTNAGGGNLTGTARGLIKAGSINTKVVGASVDLKGLHMASDNQFNKKSFTTGHTGFGIPYCTWPDRSDVPRSAARPLRYMDRYVLVKQGEVFYTTELLAQLEGIERGPAGNTSLAAAFSLAQELDEDKAIVVQETEYTGAGKHICPQLTFARENGIDIKFGNPREEIAGVNLILPERPELLKCVDIDMNKIRNSFIKNCISNNHIDNIDKLSNRDIEFLMEEVKSSRDFVVDVLNNLEGHHHHHH", "soluble on expression in E. coli": "not soluble"}
{"sequence": "MSLKFMSRFTFKQFHINQNSCAMKVGTDGILLGAWADVKHCKNILDMGCGTGLLALMLAQRTEENCQIQAVELDPIAAKQAQENINNSVWKNRIQLTQVDIQHFLQTTEQTFDLIVANPPYFEQGIACKNEERELARYTKQSHLNWLEWAATRLSENGRISFVLPYEAGKTLTKSTALFCIKQTNVITKIGKTPQRMLLTFAKQPEVLMQDQLVIYDADNQYTEAFIELTKDFYLKEGHHHHHH", "soluble on expression in E. coli": "soluble"}
{"sequence": "MSLKFVGLVGSNAEQSYNRKLLEYIRKQFKLKFELELLEIDEVPMFNQDQSWKDSFQLRLLYNKIIRADGVIIATPEHNHTITAALKSVLEWLSCEVHPFENKPVMIVGASYYDQGTSRAQVHLRKILDAPGVNAYTLPGNEFLLGKAKEAFDDNGNIINQGTVDFLETCLDNFMSYVGVVSKLQKPKPIEPEDLDCNHPIATTITEVDPDDPEWVEKVAEITGAVSGDAYVKLDHGILTVDQINMFLKAMPFELTYADDNNQFLYYNNAHQDPDTMYAKRIPEQSGNRLSTVHNSLPAGRMKNVEWVIGTLRNGNQEYVRTLIPSPNPAVLNTHNYQAMYYDDGSFAGINEIVFNFKPWLDWYLQTTGQRLVGGEGHHHHHH", "soluble on expression in E. coli": "soluble"}
{"sequence": "MSLKIAITGASGFVGSHLSSQFGGSHTLLPLGRRELSDPTKLSSLLEGVDWIINLAGAPIIAKWSESYKKVLYSSRIETTRSLLLALKECPTKPSLFTSTSAIGIYDNQGTYAEGDLALAQDFLGKLAKDWEEEALKAQDLGIRTVVFRFGVVLGKGGGMMEKLRLPFSLGLGGVIGDGKQKFSWIHLHDIAKAMEFAWSTPSLSGIYNLTAPSPTTNEAFTKLYGSLIHRPTLLPVPLWALQILFGEGAKVLSDGQAAIPERLLQAGFEFEYPTLEKALKEIISEGHHHHHH", "soluble on expression in E. coli": "soluble"}
{"sequence": "MSLKIGIVGPGAIGLLYTFYLQKSNQDVTLFTRTAKQAEELNETGVTCIRDGRCETVYPPVLPIESMVAQNLDYIFISVKQYHIDDVLPFVEGASSLIFLQNGMSHLQKMLKIGSENIAVGIVEHGAKKEGGHIVHHTGIGVTKFGVVCGQSIHFKKIFRYFPVTYFPVQIETDWEEIMHKKLVVNVCINPLTALLGVKNGELITNRFFYQMMEQVFQEVAFLIRGEKEMVWQMVRNVCEGTSRNTSSMLADVRANRQTEINAIVGYVLEEAKKQQLPVPTLQFLFDAIKGLETREGHHHHHH", "soluble on expression in E. coli": "not soluble"}
{"sequence": "MSLKIHCLKLKNKELNKEVAFYLTSIIRQALKNTEYKDQISSTVLPDIKIKLPIDSRGTPDWNYMERYRDREGHHHHHH", "soluble on expression in E. coli": "soluble"}
